Results reported in patent US20250222105A1 (University of Texas, published 2025).
Positions count from the first letter of the chain named.

B1: anti-ROR1 monoclonal antibody A97 (antibody, V domains shown)
VH: EVQLQQSGPELEKPGASVKISCKASGYSFIGYSMNWVRQSDGKSLEWIGNIDPYYGGTSYNLKFKGKATLTVDKSSSTAYMQLKSLTSEDSAVYYCARLGRGYFDYWGQGTTLTVSS
VL: DIVLTQSPATLSVTPGDSVSLSCRASQSITNNLHWYQQKSHESPRLLIKSASQSISGIPSRFSGSGSGTDFTLSINSVETEDFGMYFCQQSNSWPHTFGGGTKLEIK
notes: Mouse monoclonal antibody from hybridoma
B2: anti-ROR1 monoclonal antibody A148 (antibody, V domains shown)
VH: DVQLQESGPGLVKPSQSLSLTCSVSGYSITSGYYWNWIRQFPGNKLEWMGYISNDGSNKYKPSLKNRISITRDTSKNQFFLKLNSVTTEDTATYYCARFPLINYDPWLAYWGQGTLVTVSA
VL: DVLMTQTPLSLPVSLGDQASISCRSSQNVVHRNGNTYLEWYLQKPGQSPKLLIYKVSNRFSGVPDRFSGSGSGTDFTLKISRVEAEDLGVYYCFQGSHVPWTFGGGTKLEIK
notes: as for B1
B3: anti-ROR1 monoclonal antibody A130 (antibody, V domains shown)
VH: B2 VH with S25T, S53R, K59N, K61N, L108F
VL: ETTVTQSPASLSVATGEKVTIRCITSTDIDDDMNWYQQKPGEPPKLLISEANTLRPGVPSRFSSSGYGTDFVFTIENTLSEDVADYYCLQSYNMPLTFGAGTTLELK
notes: as for B1
B4: anti-ROR1 monoclonal antibody A142 (antibody, V domains shown)
VH: EVQLQQSGPDLVKPGASVKISCKASGYSFTGYYMHWVKQSHGKSLEWIGRVYPNNGGTSYNQKFKGKAILTVDKSSTTAYMELRSLTSEDSAVYYCALIHYYGFYSMDYWGQGTSVTVSS
VL: B2 VL with N28S, V29I, R32S, K112N
notes: as for B1
B5: anti-ROR1 monoclonal antibody A89 (antibody, V domains shown)
VH: B2 VH with N36S, N84K
VL: B2 VL with N28S, V29I, R32S, K112N
notes: Mouse monoclonal antibody from hybridoma (BALB/c mice immunized with ROR1-expressing L cells)
B6: anti-ROR1 monoclonal antibody A129 (antibody, V domains shown)
VH: B2 VH with S25T, S53R, K59N, K61N, L108F
VL: B2 VL with T7A
notes: as for B1
B7: anti-ROR1 monoclonal antibody A140 (antibody, V domains shown)
VH: B2 VH with S57N, T88A
VL: B2 VL with N28S, V29I, R32S, K112N
notes: as for B1

What follows are binders tested against T1, human receptor tyrosine kinase like orphan receptor 1 (ROR1) expressed on cells (human, UniProt Q01973 30-937) (assay: cell ELISA and flow cytometry on L cells transfected with human ROR1; also positive staining of ROR1+ lymphoma lines Jeko-1, SP-53, CA46).
T1 construct: whole, on cells; also called human ROR1; ROR1-L cells

Binding result, binds:
B1
B2
B3
B4
B5
B6
B7
